Test [1] deals with T1, rh integrin α4β7 (R&D Systems #5397-A30) (human, UniProt P13612 34-970; P26010 20-723).
T1 construct: bought; coated on a nickel coated plate; also called immobilized α4β7; immobilized α4β7 integrin protein
Kind of test: competition ELISA vs MAdCAM-1. (In general: An ELISA detects its analyte on a solid surface through an enzyme-linked reagent.)

Test [2] deals with T2, human α4β7 integrin on cells (human, UniProt P13612 34-1032; P26010 20-798).
T2 construct: whole, on cells; also called α4β7 cell (Hu); RPMI8866 cells
Kind of test: PBMC memory T cell adhesion.

The target of test [3] is T1, rh integrin α4β7 (R&D Systems #5397-A30). Nature of the test: competition ELISA vs MAdCAM-1. The source holds these as a separate data set.
In test [4] the target is T3, α4β1 (R&D Systems #5668-A4) (UniProt P13612 34-970; P05556 21-728, limits assumed).
T3 construct: bought; also called soluble α4β1
Kind of test: competition ELISA vs VCAM-1.

Test [5] concerns the target T2, human α4β7 integrin on cells. Kind of test: RPMI8866 cell adhesion to MAdCAM-1.
Test [6] addresses T4, human α4β1 integrin on cells (human, UniProt P13612 34-1032; P05556 21-798).
T4 construct: whole, on cells; also called α4β1 cell; Jurkat cells
Kind of test: Jurkat cell adhesion to VCAM-1.

For test [7], the target named is T2, human α4β7 integrin on cells. Kind of test: RPMI8866 cell adhesion to MAdCAM-1. The source holds these as a separate data set.
The target in test [8] is T5, mouse α4β7 integrin on TK1 cells (mouse, UniProt Q00651 41-1039; P26011 20-806).
T5 construct: whole, on cells; also called α4β7 cell (Mu); Cell Adhesion α4β7 Mouse
Kind of test: TK1 cell adhesion to MAdCAM-1.

Like-named read-outs stand apart in the source and are kept apart here. Numbered stars: 1 amine (or outer) side, 2 acyl side, 3 side chain; on linkers, the order of the positions; unused ones are H or OH. Bridge positions count the residues as written; N and C are the ends. Square brackets hold non-standard residues; d marks the D form. Glu(OMe) = L-glutamic acid gamma-methyl ester, COC(=O)CC[C@H](N[*:1])C(=O)[*:2]; Phe(4-COOH) = N[C@@H](Cc1ccc(C(=O)O)cc1)C(=O)O; Phe(4-tBu) = CC(C)(C)c1ccc(C[C@H](N)C(=O)O)cc1; NMeR = CN[C@@H](CCCNC(=N)N)C(=O)O; β3hE = N[C@@H](CCC(=O)O)CC(=O)O; NMeK = CN[C@@H](CCCCN)C(=O)O; Pen = CC(C)(S)[C@H](N)C(=O)O Bounds are passed on as bounds.

T5 sequence (Q00651 41-1039, chain 1 of 2): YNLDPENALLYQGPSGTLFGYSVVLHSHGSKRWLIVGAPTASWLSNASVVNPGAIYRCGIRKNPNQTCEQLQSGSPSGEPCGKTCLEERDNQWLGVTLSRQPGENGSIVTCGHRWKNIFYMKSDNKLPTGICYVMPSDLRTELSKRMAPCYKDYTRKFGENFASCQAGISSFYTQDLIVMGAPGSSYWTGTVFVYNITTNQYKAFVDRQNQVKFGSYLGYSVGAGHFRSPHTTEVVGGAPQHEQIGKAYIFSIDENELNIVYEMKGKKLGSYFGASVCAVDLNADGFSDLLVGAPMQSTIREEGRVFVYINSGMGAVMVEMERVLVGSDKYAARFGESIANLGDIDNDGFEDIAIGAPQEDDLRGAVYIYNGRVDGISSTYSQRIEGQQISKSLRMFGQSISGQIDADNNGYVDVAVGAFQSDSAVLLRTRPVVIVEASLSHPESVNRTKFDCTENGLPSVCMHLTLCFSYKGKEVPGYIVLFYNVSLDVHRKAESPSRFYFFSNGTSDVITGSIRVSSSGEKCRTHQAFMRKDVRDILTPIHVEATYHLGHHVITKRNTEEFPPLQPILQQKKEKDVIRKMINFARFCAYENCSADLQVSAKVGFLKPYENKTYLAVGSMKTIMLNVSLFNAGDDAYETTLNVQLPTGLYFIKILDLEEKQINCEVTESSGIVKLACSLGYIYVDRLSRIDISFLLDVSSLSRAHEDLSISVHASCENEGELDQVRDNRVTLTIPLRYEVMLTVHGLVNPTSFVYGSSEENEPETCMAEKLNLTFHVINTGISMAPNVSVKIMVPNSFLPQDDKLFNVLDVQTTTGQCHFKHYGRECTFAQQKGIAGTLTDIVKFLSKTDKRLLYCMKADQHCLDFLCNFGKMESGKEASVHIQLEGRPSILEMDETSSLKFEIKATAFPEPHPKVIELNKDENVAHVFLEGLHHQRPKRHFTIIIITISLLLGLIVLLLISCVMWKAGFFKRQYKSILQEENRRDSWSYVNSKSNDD
T5 sequence (P26011 20-806, chain 2 of 2): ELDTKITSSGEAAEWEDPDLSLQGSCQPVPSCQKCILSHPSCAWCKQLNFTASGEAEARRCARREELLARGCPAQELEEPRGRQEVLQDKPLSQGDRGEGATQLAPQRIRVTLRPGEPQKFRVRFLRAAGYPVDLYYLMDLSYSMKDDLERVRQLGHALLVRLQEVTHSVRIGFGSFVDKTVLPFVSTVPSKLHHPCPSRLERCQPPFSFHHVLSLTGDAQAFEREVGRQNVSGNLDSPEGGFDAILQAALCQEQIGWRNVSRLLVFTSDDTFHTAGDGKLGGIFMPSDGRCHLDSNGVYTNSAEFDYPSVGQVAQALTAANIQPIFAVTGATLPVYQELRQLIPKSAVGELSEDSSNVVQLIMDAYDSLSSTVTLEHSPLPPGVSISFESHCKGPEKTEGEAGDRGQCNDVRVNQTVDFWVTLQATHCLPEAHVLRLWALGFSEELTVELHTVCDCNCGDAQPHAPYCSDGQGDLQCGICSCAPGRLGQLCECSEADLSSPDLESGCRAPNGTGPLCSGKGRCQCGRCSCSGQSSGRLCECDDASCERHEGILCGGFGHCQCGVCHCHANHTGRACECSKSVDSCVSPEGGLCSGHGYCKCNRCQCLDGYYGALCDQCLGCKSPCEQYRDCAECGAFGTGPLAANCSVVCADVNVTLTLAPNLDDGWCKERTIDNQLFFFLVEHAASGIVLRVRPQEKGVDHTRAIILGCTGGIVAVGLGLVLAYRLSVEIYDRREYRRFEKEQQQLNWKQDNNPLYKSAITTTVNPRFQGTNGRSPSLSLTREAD

B1: SEQ ID NO: 133 (peptide)
peptide: Ac-[Pen][NMeR]SDTL[Pen][Phe(4-tBu)]E[NMeK]-NH2
modifications: disulfide 1-7; not fully specified (residue 10); printed as (Ac Pen N-Me-R S D T L Pen F(4tBu) E N-Me-K NH2)2 DIG, disulfide Pen-Pen; also: homodimer, two subunits joined by DIG linker
The IC50 is the midpoint of a concentration-inhibition curve. The low end stands for higher potency, the high end for lower potency. With B1, the IC50 in test [1] and in test [2] was not above 10 nM throughout.

B2: SEQ ID NO: 200 (peptide)
peptide: Ac-C[NMeR]SDTLCK-OH
modifications: disulfide 1-7 (inferred); also: dimer linked by PEG25, attachment not given here
notes: also called peptide 200
B2: the IC50 in test [3] is 3 nM; in test [4] it was 16700 nM; in test [5], 96 nM; in test [6], more than 100000 nM.

B3: SEQ ID NO: 166 (peptide)
peptide: Ac-[Pen][NMeR]SDTL[Pen][Phe(4-tBu)][β3hE][dK]-NH2
modifications: disulfide 1-7; not fully specified (residue 10); printed as (Ac Pen N-Me-R S D T L Pen F(4-tBu) b-H-E k NH2)2 IDA, disulfide Pen-Pen; also: homodimer (…)2 IDA via D-Lys10 NZ
As for B3, the IC50 in test [7] and in test [2] was not above 10 nM each time.

B4: SEQ ID NO: 197 (peptide)
peptide: Ac-CRSDTLCGEK-NH2
modifications: disulfide 1-7 (inferred); also: dimer linked by PEG25, attachment not given here
notes: also called peptide 197
Take B4: the IC50 is 36 nM in test [3], 964 nM in test [4], 301 nM in test [5] and more than 100000 nM in test [6].

B5: SEQ ID NO: 167 (peptide)
peptide: Ac-[Pen][NMeR]SDTL[Pen][Phe(4-tBu)][β3hE][dK]-NH2
modifications: disulfide 1-7; not fully specified (residue 10); printed as (Ac Pen N-Me-R S D T L Pen F(4-tBu) b-H-E k NH2)2 IDA PEG4 Biotin, disulfide Pen-Pen; also: homodimer (…)2 IDA PEG4 Biotin via D-Lys10 NZ
For B5, the IC50 in test [7] and in test [2] was not above 10 nM in each case.

B6: SEQ ID NO: 165 (peptide)
peptide: Ac-[Pen][NMeR]SDTL[Pen][Phe(4-tBu)][β3hE]-NH2
modifications: disulfide 1-7
SMILES: CC(=O)N[C@@H]1C(=O)N(C)[C@@H](CCCNC(=N)N)C(=O)N[C@@H](CO)C(=O)N[C@@H](CC(=O)O)C(=O)N[C@@H]([C@@H](C)O)C(=O)N[C@@H](CC(C)C)C(=O)N[C@H](C(=O)N[C@@H](Cc2ccc(C(C)(C)C)cc2)C(=O)N[C@@H](CCC(=O)O)CC(N)=O)C(C)(C)SSC1(C)C
In the case of B6, the IC50 in test [7] was more than 10 nM; in test [2], more than 100 nM.

B7: SEQ ID NO: 202 (peptide)
peptide: Ac-C[NMeR]SDTL[Pen][dK]-NH2
modifications: disulfide 1-7
SMILES: CC(=O)N[C@H]1CSSC(C)(C)[C@@H](C(=O)N[C@H](CCCCN)C(N)=O)NC(=O)[C@H](CC(C)C)NC(=O)[C@H]([C@@H](C)O)NC(=O)[C@H](CC(=O)O)NC(=O)[C@H](CO)NC(=O)[C@H](CCCNC(=N)N)N(C)C1=O
As for B7, the IC50 in test [3] is 87 nM; in test [4] it was 1620 nM; in test [5], 11000 nM; in test [6], more than 100000 nM.

B8: SEQ ID NO: 86 (peptide)
peptide: Ac-[Pen][NMeR]SDTL[Pen]W[Glu(OMe)][dK]-NH2
modifications: disulfide 1-7; not fully specified (residue 10); printed as (Ac Pen N-Me-R S D T L Pen W E(OMe) k NH2)2 DIG, disulfide Pen-Pen; also: homodimer: two subunits linked by DIG via D-Lys10 side chain
As for B8, the half-maximal inhibitory concentration (IC50) in test [8] and in test [7] was not above 10 nM in each case.

B9: SEQ ID NO: 168 (peptide)
peptide: Ac-[Pen][NMeR]SDTL[Pen][Phe(4-tBu)][β3hE][dK]-OH
modifications: disulfide 1-7; not fully specified (residue 10); printed as (Ac Pen N-Me-R S D T L Pen F(4tBu) b-H-E k OH)2 DIG, disulfide Pen-Pen; also: homodimer (…)2 DIG via D-Lys10 NZ
On to B9, for which the IC50 in test [7] and in test [2] was not above 10 nM each time.

B10: SEQ ID NO: 147 (peptide)
peptide: Ac-[Pen][NMeR]SDTL[Pen][Phe(4-COOH)]E[NMeK]-NH2
modifications: disulfide 1-7; not fully specified (residue 10); printed as (Ac Pen N-Me-R S D T L Pen F(4-COOH) E N-Me-K NH2)2 DIG, disulfide Pen-Pen; also: homodimer (…)2 DIG via Lys10 NZ
As to B10, the IC50 in test [8], in test [7], in test [1] and in test [2] was not above 10 nM throughout.

B11: SEQ ID NO: 148 (peptide)
peptide: Ac-[Pen][NMeR]SDTL[Pen][Phe(4-COOH)][β3hE][NMeK]-NH2
modifications: disulfide 1-7; not fully specified (residue 10); printed as (Ac Pen N-Me-R S D T L Pen F(4-COOH) b-H-E N-Me-K NH2)2 DIG, disulfide Pen-Pen; also: homodimer (…)2 DIG via Lys10 NZ
B11: the 50% inhibitory concentration (IC50) in test [8], in test [7] and in test [1] was not above 10 nM in each case.

B12: SEQ ID NO: 198 (peptide)
peptide: Ac-C[NMeR]SDTLCGE-NH2
modifications: disulfide 1-7 (inferred)
notes: also called peptide 198
As to B12, the half-maximal inhibitory concentration (IC50) was 20 nM in test [3], 1290 nM in test [4], 1120 nM in test [5] and more than 100000 nM in test [6].

B13: SEQ ID NO: 196 (peptide)
peptide: Ac-CRSDTLCGEK-NH2
modifications: disulfide 1-7 (inferred)
notes: also called peptide 196
For the molecule B13, the IC50 in test [3] was 87 nM; in test [4], 4810 nM; in test [5], 6660 nM; in test [6], more than 100000 nM.

B14: SEQ ID NO: 129 (peptide)
peptide: Ac-[Pen][NMeR]SDTL[Pen][Phe(4-COOH)]E[dK]-NH2
modifications: disulfide 1-7; not fully specified (residue 10); printed as (Ac Pen N-Me-R S D T L Pen F(4-COOH) E k NH2)2 DIG, disulfide Pen-Pen; also: homodimer: two subunits joined by DIG linker
Consider B14, for which the 50% inhibitory concentration (IC50) in test [7], in test [1] and in test [2] was not above 10 nM throughout.

B15: SEQ ID NO: 130 (peptide)
peptide: Ac-[Pen][NMeR]SDTL[Pen][Phe(4-COOH)][β3hE][dK]-NH2
modifications: disulfide 1-7; not fully specified (residue 10); printed as (Ac Pen N-Me-R S D T L Pen F(4-COOH) b-H-E k NH2)2 DIG, disulfide Pen-Pen; also: homodimer, two subunits joined by DIG linker
Turning to B15, the IC50 in test [7], in test [1] and in test [2] was not above 10 nM in each case.
